# Results reported in patent US11891427B2, “Amidated peptides and their deamidated counterparts displayed by non-HLA-a*02 for use in immunotherapy against different types of cancers” (Immatics Biotechnologies GmbH, priority 2020, dated 2024).
# Molecular target: HLA-A*01:01 (Homo sapiens, UniProt P04439, A114D/A174V/A182V/D101N/D185E/E176A/E190D/L180R/Q94H/R68K/S129P/T187R/V100A/V91M/W191G)
# Test: MHC binding assay (UV-ligand exchange, beta2m ELISA)
# Conditions: binding to HLA-A*01:01, ranged by peptide exchange yield
# Description: (§1) Candidate peptides for T cell based therapies according to the present invention were further tested for their MHC binding capacity (affinity). The individual peptide-MHC complexes were produced by UV-ligand exchange, where a UV-sensitive peptide is cleaved upon UV-irradiation and exchanged with the peptide of interest as analyzed. Only peptide candidates that can effectively bind and stabilize the peptide-receptive MHC molecules prevent dissociation of the MHC complexes. To determine the yield of the exchange reaction, an ELISA was performed based on the detection of the light chain (β2m) of stabilized MHC complexes. The assay was performed as generally described in Rodenko et al. (Rodenko et al., 2006).
# (§2) 96 well MAXISorp plates (NUNC) were coated over night with 2 μg/ml streptavidin in PBS at room temperature, washed 4× and blocked for 1 h at 37° C. in 2% BSA containing blocking buffer. Refolded HLA-A*02:01/MLA-001 monomers served as standards, covering the range of 15-500 ng/ml. Peptide-MHC monomers of the UV-exchange reaction were diluted 100-fold in blocking buffer. Samples were incubated for 1 h at 37° C., washed four times, incubated with 2 μg/ml HRP conjugated anti-β2m for 1 h at 37° C., washed again and detected with TMB solution that is stopped with […]. Absorption was measured at 450 nm. Candidate peptides that show a high exchange yield (preferably higher than 50%, most preferred higher than 75%) are generally preferred for a generation and production of antibodies or fragments thereof, and/or T cell receptors or fragments thereof, as they show sufficient avidity to the MHC molecules and prevent dissociation of the MHC complexes.
row,Peptide exchange,Substance
1,++ (≥20% = ++),4 (YIDDVTLI) [compound 4]
2,++++ (≥75% = ++++),6 (ISDITEKNSGLY) [compound 6]
3,++ (≥20% = ++),7 (VTRDDTASY) [compound 7]
4,++ (≥20% = ++),10 (QVDGSLLVI) [compound 10]
5,++ (≥20% = ++),11 (NHITDTSLNLF) [compound 11]
6,++++ (≥75% = ++++),12 (ITDTSLNLF) [compound 12]
7,++ (≥20% = ++),13 (TANYDTSHY) [compound 13]
8,++++ (≥75% = ++++),16 (VTQDDTGFY) [compound 16]
9,++++ (≥75% = ++++),18 (GTDKQDSTLRY) [compound 18]
10,+++ (≥50% = +++),20 (TSDTSQYDTY) [compound 20]
11,++++ (≥75% = ++++),25 (FTDLITDESINY) [compound 25]
12,++++ (≥75% = ++++),33 (ISDGMDSSAHY) [compound 33]
13,++ (≥20% = ++),34 (LSDLSLADI) [compound 34]
14,+++ (≥50% = +++),37 (RSLDCTVKTY) [compound 37]
15,++++ (≥75% = ++++),49 (PSDGSMHNY) [compound 49]
16,++ (≥20% = ++),50 (RSIDVTGQGF) [compound 50]
17,++ (≥20% = ++),51 (RVDDITDQF) [compound 51]
18,++++ (≥75% = ++++),52 (LTEVEKDATALY) [compound 52]
19,+++ (≥50% = +++),58 (GTDQTGKGLEY) [compound 58]

row,Peptide exchange,Substance
1,+++ (≥50% = +++),59 (ILFSDSTRLSF) [compound 59]
2,+++ (≥50% = +++),60 (HVKDATMGY) [compound 60]
3,++++ (≥75% = ++++),79 (FTDTSSYEY) [compound 79]
4,+++ (≥50% = +++),80 (LTNDQTLRL) [compound 80]
5,++++ (≥75% = ++++),81 (VTETMGIDGSAY) [compound 81]
6,++++ (≥75% = ++++),82 (VTDVTEEHY) [compound 82]
7,++++ (≥75% = ++++),83 (TFVDASRTLY) [compound 83]
8,++++ (≥75% = ++++),84 (EVEGVIDGTYDY) [compound 84]
9,++ (≥20% = ++),85 (EVQDHSTSSY) [compound 85]
10,++ (≥20% = ++),86 (ILPDITTTY) [compound 86]
11,++++ (≥75% = ++++),87 (ITDDTVQTY) [compound 87]
12,++++ (≥75% = ++++),88 (WLDRSTILY) [compound 88]
13,++ (≥20% = ++),89 (HVSDVTVNY) [compound 89]
14,++++ (≥75% = ++++),90 (HVDNSNLNY) [compound 90]
15,++++ (≥75% = ++++),91 (GVDDTSLLY) [compound 91]
16,++ (≥20% = ++),92 (GQYDDSLQAY) [compound 92]
17,++ (≥20% = ++),93 (HADLTTLTF) [compound 93]
18,+++ (≥50% = +++),94 (YSIDVTNVM) [compound 94]

row,Substance,Peptide exchange
1,19 (MTDVDRDGTTAY) [compound 19],++++ (≥75% = ++++)

# Molecular target: HLA-B*07:02 (Homo sapiens, UniProt P01889)
# Test: as above
# Conditions: binding to HLA-B*07:02 ranged by peptide exchange yield
# Description: as §1, §2
row,Peptide exchange,Substance
1,+++ (≥50% = +++),21 (APFKDVTEY) [compound 21]
2,++++ (≥75% = ++++),39 (LPFFTDKTLSF) [compound 39]
3,+++ (≥50% = +++),48 (FPYYLKIDY) [compound 48]
4,++++ (≥75% = ++++),62 (HPDLTSMTF) [compound 62]
5,++++ (≥75% = ++++),70 (HPFGYDLTL) [compound 70]
6,++++ (≥75% = ++++),71 (VPRNQDESV) [compound 71]
7,++++ (≥75% = ++++),105 (NPADISVAL) [compound 105]
8,+++ (≥50% = +++),106 (SPKIFDSSW) [compound 106]
9,+++ (≥50% = +++),107 (GEPTSDITLL) [compound 107]

# Molecular target: HLA-A*03:01 (Homo sapiens, UniProt P04439)
# Test: as above
# Conditions: binding to HLA-A*03:01 ranged by peptide exchange yield
# Description: as §1, §2
row,Peptide exchange,Substance
1,+++ (≥50% = +++),3 (IVRDLSCRK) [compound 3]

# Molecular target: HLA-B*44:05 (Homo sapiens, UniProt P01889, A223V/A65T/A93T/A95T/D201E/D98Y/E176V/E187L/E204Q/E69K/G107R/H137Y/K202T/L105A/L119I/N104T/N87E/Q56L/Q94N/R106L/R155S/R180D/S101N/S121R/S35A/S48T/T118I/V36M/W191S/Y91S)
# Test: as above
# Conditions: binding to HLA-B*44:05, ranged by peptide exchange yield
# Description: as §1, §2
row,Peptide exchange,Substance
1,+++ (≥50% = +++),15 (TEGDFTKEASTY) [compound 15]
2,++++ (≥75% = ++++),44 (KENQDHSYSL) [compound 44]
3,++++ (≥75% = ++++),46 (KEVDDTLLVNEL) [compound 46]
4,++++ (≥75% = ++++),73 (DESKYTWSW) [compound 73]
5,++++ (≥75% = ++++),74 (LENMYDLTF) [compound 74]
6,++++ (≥75% = ++++),75 (QEVDISLHY) [compound 75]
7,++++ (≥75% = ++++),77 (KPREEQYDSTY) [compound 77]
8,++++ (≥75% = ++++),78 (DETIWYVRF) [compound 78]
9,++++ (≥75% = ++++),108 (DETHTLQF) [compound 108]
10,+++ (≥50% = +++),109 (DETAAYKIM) [compound 109]
11,+++ (≥50% = +++),110 (AESLAVHDI) [compound 110]
12,++++ (≥75% = ++++),111 (GEYRCQTDL) [compound 111]
13,++++ (≥75% = ++++),112 (AEFFDYTVRTL) [compound 112]
14,++++ (≥75% = ++++),113 (TDFTKIASF) [compound 113]

# Molecular target: HLA-A*24:02 (Homo sapiens, UniProt P04439, D101N/D140Y/D185E/E176V/E190D/F33S/G103R/G107R/I119L/I121M/I306V/K335N/L105A/L180Q/L300P/N151K/N90K/Q86E/Q94H/R106L/R138H/R89G/T104I/T345S/V100E/W191G/Y123F)
# Test: as above
# Conditions: binding to HLA-A*24:02, ranged by peptide exchange yield
# Description: as §1, §2
row,Peptide exchange,Substance
1,++ (≥20% = ++),1 (VHDFTLPSW) [compound 1]
2,++++ (≥75% = ++++),2 (FFQDSTFSF) [compound 2]
3,+++ (≥50% = +++),5 (GYIDDVTLI) [compound 5]
4,++ (≥20% = ++),9 (IFDETGRF) [compound 9]
5,+ (≥10% = +),23 (SYDETKIKF) [compound 23]
6,++ (≥20% = ++),24 (FYDNSVIIF) [compound 24]
7,++++ (≥75% = ++++),26 (IYPDASLLIQNI) [compound 26]
8,+++ (≥50% = +++),36 (YWDETLKEF) [compound 36]
9,++ (≥20% = ++),38 (KLTDNSNQF) [compound 38]
10,++++ (≥75% = ++++),43 (FFTDKTLSF) [compound 43]
11,+++ (≥50% = +++),45 (YFVDVTTRI) [compound 45]
12,+++ (≥50% = +++),54 (QYQDTTVSF) [compound 54]
13,++++ (≥75% = ++++),55 (VYTDISHHF) [compound 55]
14,++++ (≥75% = ++++),57 (FYDLSIQSF) [compound 57]
15,+ (≥10% = +),64 (FHYDDTAGYF) [compound 64]
16,++ (≥20% = ++),65 (IYQFARLDY) [compound 65]

row,Peptide exchange,Substance
1,+ (≥10% = +),66 (YHDQTISF) [compound 66]
2,++ (≥20% = ++),67 (QAIDLSLNF) [compound 67]
3,++ (≥20% = ++),68 (VFDETKNLL) [compound 68]
4,++++ (≥75% = ++++),69 (KSYHDQTISF) [compound 69]
5,++++ (≥75% = ++++),76 (TYLPTDASLSF) [compound 76]
6,++++ (≥75% = ++++),95 (VYIDDSVEL) [compound 95]
7,++ (≥20% = ++),96 (IFVPTDRSL) [compound 96]
8,++++ (≥75% = ++++),97 (RYVNDYTNSF) [compound 97]
9,++ (≥20% = ++),98 (AFDKTIVKL) [compound 98]
10,++++ (≥75% = ++++),99 (VYVDTTELAL) [compound 99]
11,++++ (≥75% = ++++),100 (EYQDFSTLF) [compound 100]
12,++++ (≥75% = ++++),101 (VYLDASKVPGF) [compound 101]
13,++++ (≥75% = ++++),102 (IYPDGTLLI) [compound 102]
14,++ (≥20% = ++),103 (RQDESYLNF) [compound 103]
15,++ (≥20% = ++),104 (HLFYDVTVF) [compound 104]
